Results: US6866854 (TRUSTEES OF COLUMBIA UNIVERSITY IN THE CITY OF NEW YORK, dated 2005)

Biological target: T1, LANA2 fused to GAL4-AD (plasmid pGAD424) (Kaposi's sarcoma-associated herpesvirus …, UniProt F5HIC6 1-566)
T1 sequence: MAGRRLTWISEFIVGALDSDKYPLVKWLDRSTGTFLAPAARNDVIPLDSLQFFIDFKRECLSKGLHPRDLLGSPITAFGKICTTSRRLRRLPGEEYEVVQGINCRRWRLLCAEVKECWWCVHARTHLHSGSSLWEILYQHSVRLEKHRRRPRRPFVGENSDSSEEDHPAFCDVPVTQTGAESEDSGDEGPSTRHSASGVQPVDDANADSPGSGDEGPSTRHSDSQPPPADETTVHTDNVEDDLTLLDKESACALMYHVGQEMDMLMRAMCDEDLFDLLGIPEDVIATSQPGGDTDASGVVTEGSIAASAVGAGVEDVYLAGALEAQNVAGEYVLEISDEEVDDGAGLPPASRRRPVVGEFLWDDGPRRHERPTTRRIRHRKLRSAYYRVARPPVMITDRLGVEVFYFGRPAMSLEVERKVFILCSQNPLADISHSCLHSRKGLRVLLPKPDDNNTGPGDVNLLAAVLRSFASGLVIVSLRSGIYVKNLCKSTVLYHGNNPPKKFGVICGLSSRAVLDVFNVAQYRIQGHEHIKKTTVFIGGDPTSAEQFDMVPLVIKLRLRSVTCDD
Test: yeast two-hybrid assay, strain Y-190, b-galactosidase

B1: murine p53 fused to GAL4 DNA-binding domain (DNA-BD/murine p53 fusion protein PVA3) (other)
chain: MKLLSSIEQACDICRLKKLKCSKEKPKCAKCLKNNWECRYSPKTKRSPLTRAHLTEVESRLERLEQLFLLIFPREDLDMILKMDSLQDIKALLTGLFVQDNVNKDAVTDRLASVETDMPLTLRQHRISATSSSEESSNKGQRQLTVSPVTETPGPVAPAPATPWPLSSFVPSQKTYQGNYGFHLGFLQSGTAKSVMCTYSPPLNKLFCQLAKTCPVQLWVSATPPAGSRVRAMAIYKKSQHMTEVVRRCPHHERCSDGDGLAPPQHLIRVEGNLYPEYLEDRQTFRHSVVVPYEPPEAGSEYTTIHYKYMCNSSCMGGMNRRPILTIITLEDSSGNLLGRDSFEVRVCACPGRDRRTEEENFRKKEVLCPELPPGSAKRALPTCTSASPPQKKKPLDGEYFTLKIRGRKRFEMFRELNEALELKDAHATEESGDSRAHSSYLKTKKGQSTSRHKKTMVKKVGPDSD
notes: also called p53 into the Gal4-BD cassette
- binding result: no binding
